Data from patent publication EP4574846A1.

How the values were obtained:
[1] = target: human VEGFA165 (human) (UniProt P15692); assay: SPR Biacore 8K, VEGFA165 (GenScript) on CM5 at low immobilization, protein as analyte, 1:1 model
[2] = target: human VEGFA165 (human) (UniProt P15692); assay: cell-based or functional assay

Chain of human VEGFA165 (human) (P15692 other isoform, or with tags, fused parts or gaps limits assumed): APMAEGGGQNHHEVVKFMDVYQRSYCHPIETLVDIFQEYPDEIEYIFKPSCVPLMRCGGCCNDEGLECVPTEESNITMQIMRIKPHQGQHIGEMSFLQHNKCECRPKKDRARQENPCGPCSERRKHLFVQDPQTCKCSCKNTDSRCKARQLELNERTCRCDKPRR

Substance: Aflibercept (Fc fusion)
- Kd [1]: 0.0584 nM
- koff [1]: 9.57e-05 s⁻¹
- kon [1]: 1.64e+06 M⁻¹ s⁻¹
- HUVEC proliferation inhibition IC50 [2]: 0.81 nM
- HUVEC proliferation inhibition Maximum inhibition rate (%) [2]: 60%

Substance: human IgG1 antibody (hIgG1 control) that binds to HIV
- HUVEC proliferation inhibition Maximum inhibition rate (%) [2]: 0%
